Results as given in patent US20260327314 (published 2026).
Like-named read-outs stand apart in the source and are kept apart here.

How the values were obtained:
Human CD16B = target: T1, Human CD16B (human); experiment: ELISA
T1 chain: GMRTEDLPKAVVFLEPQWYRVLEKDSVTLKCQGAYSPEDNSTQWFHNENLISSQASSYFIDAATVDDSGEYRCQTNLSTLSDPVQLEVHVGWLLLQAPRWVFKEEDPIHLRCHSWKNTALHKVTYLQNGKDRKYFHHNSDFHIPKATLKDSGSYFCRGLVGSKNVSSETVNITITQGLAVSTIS

Human CD16A 158V [1] = target: Human CD16A 158V (human); experiment: ELISA
Human CD16A 158F [2] = target: Human CD16A 158F (human); experiment: ELISA
Target sequence in this assay (chain, as listed by the source): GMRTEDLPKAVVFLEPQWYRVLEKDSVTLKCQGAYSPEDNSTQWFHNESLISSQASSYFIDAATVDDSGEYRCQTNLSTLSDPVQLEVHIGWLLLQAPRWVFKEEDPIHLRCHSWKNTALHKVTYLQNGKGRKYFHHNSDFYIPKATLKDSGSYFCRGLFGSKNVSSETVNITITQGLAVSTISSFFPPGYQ

Human CD16A 158V [3] = target: Human CD16A 158V (human); experiment: ELISA; remark: listed apart in the source
Target sequence in this assay (chain, as listed by the source): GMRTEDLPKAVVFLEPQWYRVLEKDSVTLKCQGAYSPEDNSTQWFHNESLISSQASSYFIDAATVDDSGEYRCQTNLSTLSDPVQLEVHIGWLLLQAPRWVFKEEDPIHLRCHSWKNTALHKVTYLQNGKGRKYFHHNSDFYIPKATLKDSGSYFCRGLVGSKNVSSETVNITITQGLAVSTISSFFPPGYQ

Human CD16A 158V [4] = target: Human CD16A 158V (human); experiment: BLI
Human CD16A 158F [5] = target: Human CD16A 158F (human); experiment: BLI

Row | Binder | binding result (Human CD16B) | EC50 (Human CD16A 158V [1]) | EC50 (Human CD16A 158F [2]) | EC50 (Human CD16A 158V [3]) | Kd (Human CD16A 158V [4]) | Kd (Human CD16A 158F [5])
1 | BM130-92 (Margetuximab) (antibody) chain 1: QVQLQQSGPELVKPGASLKLSCTASGFNIKDTYIHWVKQRPEQGLEWIGRIYPTNGYTRYDPKFQDKATITADTSSNTAYLQVSRLTSEDTAVYYCSRWGGDGFYAMDYWGQGASVTVSSASTKGPSVFPLAPSSKSTSGGTAALGCLVKDYFPEPVTVSWNSGALTSGVHTFPAVLQSSGLYSLSSVVTVPSSSLGTQTYICNVNHKPSNTKVDKRVEPKSCDKTHTCPPCPAPELVGGPSVFLLPPKPKDTLMISRTPEVTCVVVDVSHEDPEVKFNWYVDGVEVHNAKTKPPEEQYNSTLRVVSVLTVLHQDWLNGKEYKCKVSNKALPAPIEKTISKAKGQPREPQVYTLPPSRDELTKNQVSLTCLVKGFYPSDIAVEWESNGQPENNYKTTPLVLDSDGSFFLYSKLTVDKSRWQQGNVFSCSVMHEALHNHYTQKSLSLSPGK chain 2: DIVMTQSHKFMSTSVGDRVSITCKASQDVNTAVAWYQQKPGHSPKLLIYSASFRYTGVPDRFTGSRSGTDFTFTISSVQAEDLAVYYCQQHYTTPPTFGGGTKVEIKRTVAAPSVFIFPPSDEQLKSGTASVVCLLNNFYPREAKVQWKVDNALQSGNSQESVTEQDSKDSTYSLSSTLTLSKADYEKHKVYACEVTHQGLSSPVTKSFNRGEC | no binding | 45.1 nM |  |  |  | 
2 | CD16-VH-RM72 (antibody) EVQLVESGGGLVQPGGSLRLSCAASGFTFSNYGMSWVRQAPGKGLEWIGSIYYSGQTNYNPSLKSLVTISRDNSKNTLYLQMNSLRAEDTATYYCARESIDYWGQGTLVTVSS |  |  | 1.89 nM | 1.86 nM | 4.38 nM | 4.58 nM
3 | CD16-VH-RM73 (antibody) EVQLVESGGGLVQPGGSLRLSCAASGFTFSNYGMSWVRQAPGKGLEWIGSIYYSGTTNYNPSLKSLVTISRDNSKNTLYLQMNSLRAEDTATYYCARESIDYWGQGTLVTVSS |  |  | 3.29 nM | 4.2 nM | 8.2 nM | 2.41 nM
4 | CD16-VH-RM75 (antibody) EVQLVESGGGLVQPGGSLRLSCAASGFTFSNYGMSWVRQAPGKGLEWIGSIYYSGDTNYNPSLKSLVTISRDNSKNTLYLQMNSLRAEDTATYYCARESIDYWGQGTLVTVSS |  |  | 3.04 nM | 2.06 nM | 3.51 nM | 2.62 nM
5 | CD16-VH-RM81 (antibody) EVQLVESGGGLVQPGGSLRLSCAASGFTFSNYGMSWVRQAPGKGLEWIGSIYYTGSTNYNPSLKSLVTISRDNSKNTLYLQMNSLRAEDTATYYCARESIDYWGQGTLVTVSS |  |  | 1.25 nM | 1.8 nM | 2.69 nM | 2.45 nM
6 | CD16-VH-RM82 (antibody) EVQLVESGGGLVQPGGSLRLSCAASGFTFSNYGMSWVRQAPGKGLEWIGSIYYSVSTNYNPSLKSLVTISRDNSKNTLYLQMNSLRAEDTATYYCARESIDYWGQGTLVTVSS |  |  | 3.29 nM | 3.2 nM |  | 5.26 nM
7 | CD16-VH-RM77 (antibody) EVQLVESGGGLVQPGGSLRLSCAASGFTFSNYGMSWVRQAPGKGLEWIGSIYYNGSTNYNPSLKSLVTISRDNSKNTLYLQMNSLRAEDTATYYCARESIDYWGQGTLVTVSS |  |  | 1.21 nM | 1.42 nM | 5.31 nM | 1.24 nM
8 | BM156-01 (antibody) EVQLVESGGGLVQPGGSLRLSCAASGFTFSNYGMSWVRQAPGKGLEWIGSIYYSGSTNYNPSLKSLVTISRDNSKNTLYLQMNSLRAEDTATYYCARESIDYWGQGTLVTVSS |  |  | 7.66 nM | 4.57 nM | 20.6 nM | 5.15 nM
9 | CD16-VH-RM76 (antibody) EVQLVESGGGLVQPGGSLRLSCAASGFTFSNYGMSWVRQAPGKGLEWIGSIYYSGETNYNPSLKSLVTISRDNSKNTLYLQMNSLRAEDTATYYCARESIDYWGQGTLVTVSS |  |  | 2.2 nM | 2.71 nM | 16.2 nM | 6.06 nM
10 | CD16-VH-RM80 (antibody) EVQLVESGGGLVQPGGSLRLSCAASGFTFSNYGMSWVRQAPGKGLEWIGSIYYDGSTNYNPSLKSLVTISRDNSKNTLYLQMNSLRAEDTATYYCARESIDYWGQGTLVTVSS |  |  | 3.03 nM | 3.32 nM |  | 3.99 nM
